Laboratory results taken from patent EP4722246A1, “TEM8-TARGETED ANTIBODY OR ANTIGEN-BINDING FRAGMENT THEREOF, AND USE THEREOF” (Inxmed (Nanjing) Co., Ltd., priority 2023, dated 2024).

Target: hTEM8-his antigen (hTEM8 containing 6 His tags) (human) (UniProt Q9H6X2)
Experiment: phage supernatant ELISA on hTEM8-his

Sequence of hTEM8-his antigen (hTEM8 containing 6 His tags) (human) (Q9H6X2 33-321 limits assumed): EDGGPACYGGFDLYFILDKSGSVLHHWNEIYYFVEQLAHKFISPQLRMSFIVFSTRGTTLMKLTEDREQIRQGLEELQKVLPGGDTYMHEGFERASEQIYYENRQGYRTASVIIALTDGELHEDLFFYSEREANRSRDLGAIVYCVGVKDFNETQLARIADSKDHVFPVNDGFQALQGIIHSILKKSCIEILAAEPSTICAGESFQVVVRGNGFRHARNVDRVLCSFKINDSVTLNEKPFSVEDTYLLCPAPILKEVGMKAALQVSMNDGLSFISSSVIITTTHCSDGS

| Binder | hTEM8-his ELISA (OD450) |
| --- | --- |
| phage clone 3B3 (scFv on phage) (scFv, V domains shown) VH: EVQLVQSGGGLVKPGGSLRLSCAASGFTFSSYSMNWVRQAPGKGLEWVSSISSSSSYIYYADSVKGRFTISRDNAKNSLYLQMNSLRAEDTAVYYCARVRPPYGMDVWGQGTLVTVSS VL: NIQMTQSPSSVSASVGDTVTISCRASQGISNWLGWYQQRPGEAPKLLIYAASHLQSGVPSRFSGSGSGTDFVLTITSLQPEDFATYYCQQSNSFPLAFGGGTKLEIK | 2.86 OD450 |
| phage clone 6A6 (scFv on phage) (scFv, V domains shown) VH: EVQLVESGGGVVQPGGSLRLSCAASGFTFDDYAMHWVRQAPGKGLEWVSLISGDGGSTYYADSVKGRFTISRDNSKNSLYLQMNSLKASDTAMYYCARPRWGRYSSSWPFDYWGQGTLVTVSS VL: QSALTQPASVSGSPGQSITISCTGTSSDVGTYNYVSWYQQHPGKAPKLMIYDVTDRPSGISNRFSGSKSGNTASLTISGLQAEDEGNYYCSSYTSNRSWVFGGGTKLTVL | 2.67 OD450 |
| phage clone 11B7 (scFv on phage) (scFv, V domains shown) VH: QVQLVQSGGGVVQPGRPLRLSCAASGFNLGSYAMSWVRQAPGKGLEWVSAISGSGGSTYYADSVKGRFTISRDNSKNTLYLQMNSLRAEDTAVYYCAKILGPGNLNYYYYYGMDVWGQGTTVTVSS VL: SSELTQDPAVSVALGQTVRITCQGDSLRNSYASWYQQKPGQAPVLVIYGNNNRPSGIPDRVSGSRSGNTASLTITGAQAEDEADYYCNSRDSSGNHVVFGGGTELTVL | 2.43 OD450 |
| phage clone 7E3 (scFv on phage) (scFv, V domains shown) VH: QVQLVESGGGLVNPGGSLRLSCAVSGFTSSGFSINWVRQAPGKGLEWVSSISGIGDSIFYADSVKGRFTISRDNAKNLVFLQMNSVKAEDTAVYYCVRDKWGWGTYSLFDYWGQGTLVTVSS VL: QAVLTQPPSASGTPGQRVTISCSGSSSNIASNVVSWYQQLPGTAPKVLIYSNNRRPSGVPDRFSGSKSGASASLAISGLQSDDETHYYCAAWDDSLKGPVFGGGTQLTVL | 2.5 OD450 |
